Data published in publication PMC10397247.

What was measured:
[1] = target: T1, P11A-bA; experiment: two-hybrid library CCNG1;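 note: natural log of median RNA to DNA barcode read ratio; higher means stronger binding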
T1 chain: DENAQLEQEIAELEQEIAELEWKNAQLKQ

[2] = target: T2, P4A-bA; experiment: two-hybrid library CCNG1;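 note: natural log of median RNA to DNA barcode read ratio; higher means stronger binding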
T2 chain: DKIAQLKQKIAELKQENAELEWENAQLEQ

[3] = target: T3, P5A-bA; experiment: two-hybrid library CCNG1;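 note: natural log of median RNA to DNA barcode read ratio; higher means stronger binding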
T3 chain: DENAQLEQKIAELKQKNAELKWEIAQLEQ

[4] = target: T4, P6A-bA; experiment: two-hybrid library CCNG1;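 note: natural log of median RNA to DNA barcode read ratio; higher means stronger binding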
T4 chain: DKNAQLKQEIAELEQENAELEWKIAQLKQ

[5] = target: T5, P7A-bA; experiment: two-hybrid library CCNG1;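 note: natural log of median RNA to DNA barcode read ratio; higher means stronger binding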
T5 chain: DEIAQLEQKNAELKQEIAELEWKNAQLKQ

[6] = target: T6, P2A-bA; experiment: two-hybrid library CCNG1;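 note: natural log of median RNA to DNA barcode read ratio; higher means stronger binding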
T6 chain: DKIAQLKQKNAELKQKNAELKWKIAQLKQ

[7] = target: T7, P1A-bA; experiment: two-hybrid library CCNG1
T7 chain: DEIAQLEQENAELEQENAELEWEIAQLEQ

[8] = target: T8, P8A-bA; experiment: two-hybrid library CCNG1
T8 chain: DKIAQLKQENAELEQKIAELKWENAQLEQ

[9] = target: T9, P3A-bA; experiment: two-hybrid library CCNG1
T9 chain: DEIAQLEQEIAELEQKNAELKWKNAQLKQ

[10] = target: T10, P12A-bA; experiment: two-hybrid library CCNG1
T10 chain: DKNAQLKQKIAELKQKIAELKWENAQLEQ

[11] = target: T11, P9A-bA; experiment: two-hybrid library CCNG1
T11 chain: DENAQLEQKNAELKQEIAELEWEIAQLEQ

[12] = target: T12, P2-AA-1HAA-T; experiment: two-hybrid library CCmax; conditions: mean of both orientations
T12 chain: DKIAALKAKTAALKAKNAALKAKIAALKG

[13] = target: T13, P2-AA-1HAA-E; experiment: two-hybrid library CCmax; conditions: mean of both orientations
T13 chain: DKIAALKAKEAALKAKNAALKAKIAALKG

[14] = target: T14, P2-AA; experiment: two-hybrid library CCmax; conditions: mean of both orientations
T14 chain: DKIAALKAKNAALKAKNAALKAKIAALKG

[15] = target: T15, P2-AA-1HAA-R; experiment: two-hybrid library CCmax; conditions: mean of both orientations
T15 chain: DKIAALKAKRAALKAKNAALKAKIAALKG

[16] = target: T16, P2-AA-1HAA-S; experiment: two-hybrid library CCmax; conditions: mean of both orientations
T16 chain: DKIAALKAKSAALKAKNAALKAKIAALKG

[17] = target: T17, P2-AA-1HAA-K; experiment: two-hybrid library CCmax; conditions: mean of both orientations
T17 chain: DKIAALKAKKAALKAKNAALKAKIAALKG

Binder | interaction score [1] | interaction score [2] | interaction score [3] | interaction score [4] | interaction score [5] | interaction score [6] | interaction score [7] | interaction score [8] | interaction score [9] | interaction score [10] | interaction score [11] | interaction score [12] | interaction score [13] | interaction score [14] | interaction score [15] | interaction score [16] | interaction score [17]
DKNAQLKQENAELEQKIAELKWKIAQLKQ [P10A-bA] | 0.99 | 0.592 | 0.318 | -0.543 | 1.04 | -0.362 | 0.776 | -0.165 | 0.562 | 0.511 | – | – | – | – | – | – | –
DENAQLEQEIAELEQEIAELEWKNAQLKQ [P11A-bA] | -1.39 | 1.83 | 0.849 | 0.118 | -1.28 | 1.07 | 0.307 | -0.166 | -0.656 | 1.91 | -0.585 | – | – | – | – | – | –
DEIAALEAEEAALEAENAALEAEIAALEG [P1-AA-1HAA-E] | – | – | – | – | – | – | – | – | – | – | – | 1.66 | 0.691 | 1.82 | 1.9 | 1.57 | 1.57
